Earlier results in patent publication US20240173301A1, “2-IMINOBIOTIN FOR USE IN THE TREATMENT OF STROKE” (NEUROPHYXIA B.V., priority 2021, published 2024).

Conditions: acute ischemic stroke, intravenous thrombolysis

B1: Alteplase (protein, UniProt P00750 36-562, looked up)
Tissue-type plasminogen …: SYQVICRDEKTQMIYQQHQSWLRPVLRSNRVEYCWCNSGRAQCHSVPVKSCSEPRCFNGGTCQQALYFSDFVCQCPEGFAGKCCEIDTRATCYEDQGISYRGTWSTAESGAECTNWNSSALAQKPYSGRRPDAIRLGLGNHNYCRNPDRDSKPWCYVFKAGKYSSEFCSTPACSEGNSDCYFGNGSAYRGTHSLTESGASCLPWNSMILIGKVYTAQNPSAQALGLGKHNYCRNPDGDAKPWCHVLKNRRLTWEYCDVPSCSTCGLRQYSQPQFRIKGGLFADIASHPWQAAIFAKHRRSPGERFLCGGILISSCWILSAAHCFQERFPPHHLTVILGRTYRVVPGEEEQKFEVEKYIVHKEFDDDTYDNDIALLQLKSDSSRCAQESSVVRTVCLPPADLQLPDWTECELSGYGKHEALSPFYSERLKEAHVRLYPSSRCTSQHLLNRTVTDNMLCAGDTRSGGPQANLHDACQGDSGGPLVCLNDGRMTLVGIISWGLGCGQKDVPGVYTKVTNYLDWIRDNMRP
notes: fibrinolytic drug
risk of a poor outcome: reduced the risk of a poor outcome
